Reference: the supplement of paper PMC7125110
± gives the standard error. Fewer inactive variants are shown than the library holds.

B1: glmS ribozyme (parent)
chain: AUAAAAGCGCCAGAACUACAGAAAUGUAGUUGACGAGGAGGAGGUUUAUCGAAUUUUCGGCGGAUGCCUCCAAA

Legend:
Settings in all cases: with glucosamine-6-phosphate
glucosamine-6-phosphate [1] = variants of: B1; assay: self-cleavage kobs at 640 uM GlcN6P; higher = faster cleavage; RNA array
Procedure, shortened: (§1)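 Glucosamine-6-phosphate, from 40 μM to 10 mM in HEPES/KCl/Mg(OAc)2 buffer, was flowed over sequenced MiSeq chips carrying barcoded ribozyme variants transcribed in situ by E. coli RNA polymerase. A hybridised Cy3 probe tracked the variants at 37 °C as tiles were imaged over ~14 h. kobs, kcat and KM were obtained by fitting normalised per-tile medians to exponential decays and then applying weighted Michaelis–Menten fits across concentrations.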

glucosamine-6-phosphate [2] = variants of: B1; assay: self-cleavage kobs at 2500 uM GlcN6P; higher = faster cleavage; RNA array
Procedure, shortened: as §1

glucosamine-6-phosphate [3] = variants of: B1; assay: self-cleavage kobs at 10000 uM GlcN6P; higher = faster cleavage; RNA array
Procedure, shortened: as §1

Variant | self-cleavage kobs at 640 uM GlcN6P (glucosamine-6-phosphate [1]) | self-cleavage kobs at 2500 uM GlcN6P (glucosamine-6-phosphate [2]) | self-cleavage kobs at 10000 uM GlcN6P (glucosamine-6-phosphate [3])
C11A C61U | < 1e-05 s⁻¹ | < 1e-05 s⁻¹ | < 1e-05 s⁻¹
A12U C16U G63U G66C | < 1e-05 s⁻¹ | < 1e-05 s⁻¹ | 
C11G A12C C34G A53G U54C | < 1e-05 s⁻¹ | < 1e-05 s⁻¹ | 
A42G G43A C67U C68U | 0.000241 ± 0.00011 s⁻¹ |  | 0.000713 ± 0.00018 s⁻¹
C10A A12U G29A A39G A52G C67G | 0.000283 ± 8.4e-05 s⁻¹ | 0.000236 ± 7.4e-05 s⁻¹ | 
U46G C50G C71A | 8.98e-05 ± 3.3e-05 s⁻¹ |  | 
C11G A39C C67G | < 1e-05 s⁻¹ | < 1e-05 s⁻¹ | 
A14U U31A G37C G59C | < 1e-05 s⁻¹ | < 1e-05 s⁻¹ | 
C11G C70A | 3.62e-05 ± 1.5e-05 s⁻¹ |  | 
C16U G21U G35U C70A | 7.72e-05 ± 2.8e-05 s⁻¹ |  | 
A33G G43U C70G | < 1e-05 s⁻¹ |  | 
G59U G62A C70G | 5.34e-05 ± 1.5e-05 s⁻¹ |  | 
A6U G13U G29U C70G | 4.98e-05 ± 2.3e-05 s⁻¹ |  | 
C34G C58U C68G | 9.4e-05 ± 2.9e-05 s⁻¹ |  | 
A6U U45C C71U | < 1e-05 s⁻¹ | < 1e-05 s⁻¹ | 
G40U U65G G66A | 9.33e-05 ± 1.9e-05 s⁻¹ | 0.000269 ± 8.2e-05 s⁻¹ | 
U47A G66C C71U | 0.000187 ± 6.3e-05 s⁻¹ | 0.000491 ± 0.00012 s⁻¹ | 
G13U G38U | < 1e-05 s⁻¹ |  | 
C16G A39C G41U U56C C67U | < 1e-05 s⁻¹ |  | 
G9U U47G C68A | < 1e-05 s⁻¹ |  | 
G7A C10U C16U U65C | < 1e-05 s⁻¹ |  | 
U47A C61U U69G | 0.00233 ± 0.0008 s⁻¹ |  | 
G13C U56A U65A | < 1e-05 s⁻¹ | < 1e-05 s⁻¹ | 

Variant | self-cleavage kobs at 640 uM GlcN6P (glucosamine-6-phosphate [1]) | self-cleavage kobs at 2500 uM GlcN6P (glucosamine-6-phosphate [2]) | self-cleavage kobs at 10000 uM GlcN6P (glucosamine-6-phosphate [3])
C70U A72C | 0.000987 ± 0.00042 s⁻¹ | 0.0035 ± 0.0017 s⁻¹ | 
A15G U31G A39U G60U | < 1e-05 s⁻¹ | < 1e-05 s⁻¹ | 
A6U G43U C61U C71U | < 1e-05 s⁻¹ | < 1e-05 s⁻¹ | 
A6G A36C G37U G40A C61A U65A | < 1e-05 s⁻¹ | < 1e-05 s⁻¹ | 
A48C U55G | 0.000142 ± 3.3e-05 s⁻¹ | 0.00018 ± 7e-05 s⁻¹ | 
G13U C58A U69A | 6.33e-05 ± 2e-05 s⁻¹ |  | 
A14U A53U C67G | 0.000162 ± 4.5e-05 s⁻¹ |  | 
A33U C34G G44A G51A | < 1e-05 s⁻¹ | < 1e-05 s⁻¹ | 
G32C G51C | < 1e-05 s⁻¹ | < 1e-05 s⁻¹ | 
G40C G44U U47C U55A | < 1e-05 s⁻¹ | < 1e-05 s⁻¹ | 
G41U C50U G63U | < 1e-05 s⁻¹ | < 1e-05 s⁻¹ | < 1e-05 s⁻¹
U45A G63C | < 1e-05 s⁻¹ | < 1e-05 s⁻¹ | 
C8U G9U G13U G41U A42U C50G C68U | < 1e-05 s⁻¹ | < 1e-05 s⁻¹ | 
G13C A14U G40U G51C A53G U54A | < 1e-05 s⁻¹ |  | 
U31A C50G C61G | 0.000119 ± 4.7e-05 s⁻¹ | 0.000103 ± 3.8e-05 s⁻¹ | 
G7A C34U G35U G37A G40A | < 1e-05 s⁻¹ | < 1e-05 s⁻¹ | 
U30C A36C G40U | < 1e-05 s⁻¹ | < 1e-05 s⁻¹ | 
G29U G35A U45G | < 1e-05 s⁻¹ |  | 
C11A A33G G51A C71U | < 1e-05 s⁻¹ |  | 
A36U G44A G62A C71G | < 1e-05 s⁻¹ | < 1e-05 s⁻¹ | 
C10G C16U A52U U54C G66A | < 1e-05 s⁻¹ |  | 
A6U G29A G44U | < 1e-05 s⁻¹ |  | 
C8G G13C A52U A53U C71U | < 1e-05 s⁻¹ |  | < 1e-05 s⁻¹

Variant | self-cleavage kobs at 640 uM GlcN6P (glucosamine-6-phosphate [1]) | self-cleavage kobs at 2500 uM GlcN6P (glucosamine-6-phosphate [2]) | self-cleavage kobs at 10000 uM GlcN6P (glucosamine-6-phosphate [3])
C16U G66U C68G | 0.000124 ± 4.1e-05 s⁻¹ |  | 
C11G U31G A39C G41C | < 1e-05 s⁻¹ | < 1e-05 s⁻¹ | 
C8U C10U U45C | < 1e-05 s⁻¹ | < 1e-05 s⁻¹ | 
G7U A64U | < 1e-05 s⁻¹ |  | < 1e-05 s⁻¹
C10G C11U U45G A48U C58U | < 1e-05 s⁻¹ | < 1e-05 s⁻¹ | 
G35A G40U G44U U45C A52U | < 1e-05 s⁻¹ |  | 
C34A G35U A42C | < 1e-05 s⁻¹ |  | 
A14G U49C | < 1e-05 s⁻¹ |  | 
G41C U47A U56C | < 1e-05 s⁻¹ |  | 
A14G U45G C58U G62A | < 1e-05 s⁻¹ | < 1e-05 s⁻¹ | 
U30A C50A C67A C70G | 4.38e-05 ± 1.7e-05 s⁻¹ |  | 
A6G G9A G29A G32U G40U | < 1e-05 s⁻¹ |  | 
A14C G40U U56G U65A C71U | 0.000351 ± 6.7e-05 s⁻¹ | 0.00117 ± 0.00023 s⁻¹ | 
A6C G41A U55C U65G | < 1e-05 s⁻¹ |  | 
U47A G62A | < 1e-05 s⁻¹ | < 1e-05 s⁻¹ | 
G37U U55G U69G | 3.09e-05 ± 1.4e-05 s⁻¹ |  | 
U49C A52U G62U | < 1e-05 s⁻¹ |  | 
G9A A36U U56G | < 1e-05 s⁻¹ |  | 
G9U A15G U55A | < 1e-05 s⁻¹ |  | 
C11A A15G G32C A33U | < 1e-05 s⁻¹ |  | 
A12U C16U A33C | 0.000251 ± 4.5e-05 s⁻¹ | 0.000381 ± 7.2e-05 s⁻¹ | 
